Experimental findings from US20150232562A1 (Ablynx, published 2015) are described below.

B1: 15G10 (VHH)
VHH: EVQLVESGGGLVQAGGSLSLSCAASGRFFSTRVMAWYRQTPGKQREFVASMRGSGSTNYADSARGRFAISRDNAKNTVYLQMNSLKPEDTAVYYCRDINEDQWGQGTQVTVSS
notes: C-term myc-His6 tag
B2: 15A2 (VHH)
VHH: B1 VHH with V12A
notes: C-term myc-His6 tag
B3: 17A10 (VHH)
VHH: EVQLVESGGGLVQAGGSLRLSCVASGIPSIRAIAWYRQAPGKQRDWVATSGTGYGATYDDSVKGRFTLSRDNAKNTVYLQMNSLKPEDTAVYYCRDVNRDYWGQGTQVTVSS
notes: C-term myc-His6 tag
B4: 15D12 (VHH)
VHH: EVQLVESGGGLVQAGESLRLSCATSGITFKRYVMGWYRQGPGKQRELVATVNDGGTTSYADSVKGRFAISRDNAKNTAYLQMNSLKAEDTAVYYCNAVWKLPRFVDNDYWGQGTQVTVSS
notes: C-term myc-His6 tag
B5: 13D10 (VHH)
VHH: EVQLVESGGGLVQPGGSLRLSCAASSVITLDSNAIGWFRQAPGKEREEVSCIASSDGSTYYAESVKGRFTISKDYTRNTVYLQVNSLKPEDTAVYHCATDANPNCGLNVWNSWGQGTQVTVSS
notes: C-term myc-His6 tag
B6: 15C9 (VHH)
VHH: EVQLVESGGGLVQAGGSLKLSCVNSGIPSTLRAMAWYRQAPGRQRDWVATSSNTGGTTYDDSVKGRFTISRDNAKNTVYLQMNSLKPEDTGVYYCRDVNRDLWGQGTQVTVSS
notes: C-term myc-His6 tag
B7: 27G5 (VHH)
VHH: EVQLVESGGGLVQPGGSLRLSCVASRIPASIRTMAWYRQTPGNQRDWLATIGSSGTPAYADSVKGRFTVSRDNAKNTVYLQMNSLKPEDTAVYYCRDVNGDYWGQGTQVTVSS
notes: C-term myc-His6 tag
B8: 29E9 (VHH)
VHH: B7 VHH
notes: C-term myc-His6 tag
B9: 15D8 (VHH)
VHH: B7 VHH with R19K, R26T
notes: C-term myc-His6 tag
B10: 13A9 (VHH)
VHH: B7 VHH with P14A, T40A, N43K, L48V, S53T, S54G, V63F, K75N, N76H
notes: C-term myc-His6 tag
B11: 46G1 (VHH)
VHH: EVQLVESGGGLVQAGGSLRLSCAASGRTFSDDAMGWFRQAPGKERECVASLYLNGDYPYYADSVKGRFTISRDNAKNAVILQMNNLKTEDTAVYYCAAKPGWVARDPSQYNYWGQGTQVTVSS
notes: C-term myc-His6 tag
B12: 46E4 (VHH)
VHH: B11 VHH with T28A, S30K, M34V, L51M, N54D, Q109E
notes: C-term myc-His6 tag
B13: 17F7 (VHH)
VHH: EVQLVESGGGLVQAGGSLRLSCVASGIAQSIRVMAWYRQPPGKQRDWVGTISSDGTANYADSVKGRFTISRDNAKKTMYLQMNSLKPDDTAVYYCRDVNRDYWGQGTQVTVSS
notes: C-term myc-His6 tag
B14: 15G4 (VHH)
VHH: EVQLVESGGGLVQAGGSLRLSCVASGIPFRSRTMAWYRQAPGKTRDWVATIGTHGTPLYADSVKGRFTVSRDNAKNTLYLQMNSLKPEDTAVYYCWDVNGDYWGQGTQVTVSS
notes: C-term myc-His6 tag
B15: 17C6 (VHH)
VHH: EVQLVESGGGLVQAGGSLTLSCAASGSTSSLDIMAWYRQAPEKQRELVASVSGGGNSDYASSVKGRFTISGDTAKSTLYLQMNSLKPEDTAMYYCYGRDYYYMPFWGQGTQVTVSS
notes: C-term myc-His6 tag
B16: 17B5 (VHH)
VHH: EVQLVESGGGLVQTGGSLRLSCAASGSTFRTDMMGWYRQAPGKQREFVASITKFGSTNYADSVKGRFTISNDNAKDTVYLQMNSLKSEDTAVYYCRNFNRDLWGQGTQVTVSS
notes: C-term myc-His6 tag
B17: 17C2 (VHH)
VHH: EVQLVESGGGLVQPGGSLRLSCAASGFAFSSYAMSWVRQAPGKGLEWVSAVDSGGGRTDYAHSVKGRFTISRDNAKNTLYLQMSSLKPEDTALYYCTKHVSDSDYTEYDYWGQGTQVTVSS
notes: C-term myc-His6 tag
B18: 17D5 (VHH)
VHH: EVQLVESGGGLVQPGGSLRLSCAASGIIGTIRTMAWYRQAPGKQRDWVASIGTRGAPVYADSVNGRFTISRDGATNTVFLQMNNLKPEDTAVYYCRDVNRDYWGQGTQVTVSS
notes: C-term myc-His6 tag
B19: 15C8 (VHH)
VHH: EVQLVESGGGLVQAGGSLRLSCAASGIAFRIRTMAWYRQAPGKQRDWVATSDSGGTTLYADSVKGRFTVSRDNAENTVYLQMNSLKPEDTAVYYCRDVNRDYWGQGTQVTVSS
notes: C-term myc-His6 tag
B20: 27C7 (VHH)
VHH: B19 VHH with E75D
notes: C-term myc-His6 tag
B21: 27B5 (VHH)
VHH: B19 VHH with S21P
notes: C-term myc-His6 tag
B22: 13B12 (VHH)
VHH: B19 VHH with S51I, D52G, G54D, L58I, V69L, D72H
notes: C-term myc-His6 tag
B23: 27A5 (VHH)
VHH: EVQLVESGGGLVQAGGSLNLSCVASGIPFSTRTMAWYRQPPGNERDWVATIRSGAPVYADSVKGRFTVSRDNAKNTLYLQMNSLEPEDTATYYCWDVNGDIWGQGTPVTVSS
notes: C-term myc-His6 tag
B24: 13D7 (VHH)
VHH: EVQLVESGGGLVQAGGSLRLSCAANGLTFRRYDMGWYRQAPGQQREWVAAISGAGDINYADSVKGRFTMARDNANHTVHLQMNSLKPEDTAVYYCNANWKMLLGVENDYWGQGTQVTVSS
notes: C-term myc-His6 tag
B25: 13A8 (VHH)
VHH: EVQLVESGGGLVQPGGSLRLSCAASGLGIAFSRRTMAWYRQAPGKQRDWVATIAGDGSTVYADSMKGRFTISRDNAENTVYLQMNSLKPEDTAVYYCWDVNRDYWGQGTQVTVSS
notes: C-term myc-His6 tag
B26: 17F5 (VHH)
VHH: B25 VHH with E77K, M84V, V100T, R102G
notes: C-term myc-His6 tag
B27: 27D3 (VHH)
VHH: B25 VHH with V5M
notes: C-term myc-His6 tag
B28: 15A4 (VHH)
VHH: B25 VHH with E77K, M84I
notes: C-term myc-His6 tag
B29: 17G5 (VHH)
VHH: EVQLVESGGGLVQPGGSLRLSCAASGIGIAFSSRTMAWYRQAPGKQRDWVATIGSGGTTNYADSVKGRFTISRDNAKNTVYLQMNSLKPEDTAVYYCRDINRDYWGQGTQVTVSS
notes: C-term myc-His6 tag
B30: 13C9 (VHH)
VHH: EVQLVESGGGLVQAGGSLRLSCVASGIPSIHAMAWYRQAPGKQRDWGATTYSRGGTTYNDSAKGRFTISRDNAKKTVYLQMNSLKPEDTAVYYCRDVNRDYWGQGTQVTVSS
notes: C-term myc-His6 tag
B31: 15A6 (VHH)
VHH: EVQLVESGGGLVQAGGSLRLSCVTSRRPASTRTMAWYRQAPGKQRDWVATISSHGLPVYADSVKGRFTVSRDNANNTVYLQMNTLKPEDTAVYYCRDVNADYWGQGTQVTVSS
notes: C-term myc-His6 tag
B32: 15C2 (VHH)
VHH: B31 VHH with P41Q
notes: C-term myc-His6 tag
B33: 17C5 (VHH)
VHH: B31 VHH with Q108P
notes: C-term myc-His6 tag
B34: 13C4 (VHH)
VHH: EVQLVESGGGLVQAGGSLRLSCVVSGIPSSIRAMAWYRQAPGRQRDWVATIYSPSGSAVYADSVKGRFTISSDNAKSTIYLQMNSLKPDDTAVYYCRDVNREYWGQGTQVTVSS
notes: C-term myc-His6 tag
B35: 15G5 (VHH)
VHH: B34 VHH with S30T, S77K
notes: C-term myc-His6 tag
B36: 15B2 (VHH)
VHH: B34 VHH with E102D
notes: C-term myc-His6 tag
B37: 15B11 (VHH)
VHH: B34 VHH with L11S, P54R, S57G, S77N, E102D
notes: C-term myc-His6 tag
B38: 13D4 (VHH)
VHH: B34 VHH with K87E
notes: C-term myc-His6 tag
B39: 17B6 (VHH)
VHH: EVQLVESGGGLVQPGGSLRLSCAASRIPFSTRTMAWYRQAPGKQRDWVATIGTSGPPRYADSVKGRFTVSRDNAKNTVYLQMNSLKAEDTAVYYCWDVNADYWGQGTQVTVSS
notes: C-term myc-His6 tag

Where a chain is given by its changes, count along the chain named.

The target of this test is T1, recombinant human ErbB2/Fc chimera (human, UniProt P04626 23-652).
T1 construct: bought from R&D Systems; also called rhErbB2-Fc; rhErb2-Fc; Fc part of the bought chimera not given; not described
The experiment in a line: ELISA, coated ErbB2/Fc.
In the case of B1, the binding result is recorded as “binds”. For B2 the value was “binds”; for B3, “binds”.

Turning to B4, the binding result is “binds”. Turning to B5, the binding result is recorded as “binds”.

As for B6, the binding result is recorded as “binds”. For B7 the value was “binds”. Consider B8, for which the binding result is on record as “binds”. For the molecule B9, the binding result is recorded as “binds”. For B10, the binding result is reported as “binds”. For B11, the binding result is “binds”. Take B12: the binding result is “binds”. With B13, the binding result is listed as “binds”. For the molecule B14, the binding result is “binds”.

For B15, the binding result is “binds”. Regarding B16, the binding result is “binds”. B17: the binding result is reported as “binds”. For B18 the value was “binds”; for B19, “binds”.

For the molecule B20, the binding result is listed as “binds”. For B21 the value was “binds”; for B22, “binds”; for B23, “binds”. Take B24: the binding result is “binds”. Turning to B25, the binding result is “binds”. On to B26, for which the binding result is “binds”.

In the case of B27, the binding result is recorded as “binds”. As to B28, the binding result is recorded as “binds”.

Consider B29, for which the binding result is listed as “binds”. For B30, the binding result was “binds”. Consider B31, for which the binding result was “binds”. Take B32: the binding result is “binds”.

On to B33, for which the binding result is “binds”. Turning to B34, the binding result was “binds”.

As to B35, the binding result is reported as “binds”. Turning to B36, the binding result is “binds”. With B37, the binding result is listed as “binds”. In the case of B38, the binding result is given as “binds”.

Consider B39, for which the binding result is listed as “binds”.
